Source: the RNAGym collection of RNA variant scans (doi:10.1073/pnas.2313332121)

B1: TPR t1 (parent)
chain: GACCAAUCUGCCCUCAGAGCUCGAGAACAUCUUCGGAUGCAGAGGAGGCAGGCUUCGGUGGCGCGAUAGCGCCAACGUCCUCAACCUCCAAUGCAUCCCACCACAUGAUGAUGCCUGAAGAGCCUUGGUUUUUUG

Variants of: B1
Experiment: polymerase ribozyme fitness, log enrichment relative to wild type (log ratio); higher = more active; in vitro selection for triplet polymerase activity
Outline: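 The heterodimeric triplet polymerase ribozyme's subunits were each mutagenized into PCR-built libraries and transcribed. Every library was selected once, in triplicate, by annealing with a biotinylated primer, the partner subunit and triplets, incubating frozen at −7 °C, gel-excising extended constructs, capturing on streptavidin beads and running RT-PCR. Input and output libraries were Illumina-sequenced, with genotypes kept only at ≥10 input reads and ≥1 read per output. Fitness, from inverse-variance-weighted replicate averages, is the base-2 logarithm of genotype enrichment over wild-type enrichment.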

Variant | polymerase ribozyme fitness (log ratio)
A105U U106G G120C | 0.766
A5U A83C | -0.98
G60A C80U | -1.64
C12U A91U G135U | -2.33
C8A C72A U81G G120U | -0.73
C70U U125A | -1.31
A27U C70A C115G U130G | -6.2
A37C G39A C62U | -3.21
C8G C82U C97U G127C | -0.232
C3A U130A | -2.53
U7G C20A G39A C49G G61C A121G | -3.89
U7G G45C G52C C79U C102A | -3.37
A121G U125A | 2.32
C12A A105G C124U | -0.99
U54A U96C | 0.104
G47U C73G C82U | -2.22
C98G G120A | -4.76
C13A A16G G61A C79G G113C | -5.27
A18U C72G C115U G128A | -4.57
C40G C114A | -2.35
C13U A37G G47A G57C G71C | -1.61
C34A G48A C73U C101A | -4.83
A16U U21C G60A G71U U112G G113A | -5.57
C56U U96A U106A | -0.662

Variant | polymerase ribozyme fitness (log ratio)
C72U C114U C123U U130A G135A | -2.43
C15G G47U A83U A108U C114G U116G G117C | -6.68
C13A C104U A118C C124A | -0.374
C12A G61U C70U U81G | -4.98
A37U A83U U96A C124U U131A | 1.19
C8U C73A C123A | 2.02
A18C C88U A95G | -2.41
G35A C88G | -4.5
G10U C82G G110A | -1.83
C34A U59A C114A | -5.37
C70A C98U | -2.73
U9G C20A | -2.5
U59C G93C G113U U133G | -3.53
A27U C124U | -0.949
C12G U14C G17U C22G C49G G117C U130A | -6.43
G42C G57A | -3.88
C79G A83G C89G | -3.62
A24G U109C | -5.04
G39A G71C | -2.63
U7G G65U G120A | -4.13
C12U C34A G71U U78G U125A | -3.95
G51A C86U U87A G113C | -6.8
G52C C64U A84U C104A U112A | -1.62
A43U G60C C82A G113A G128C | -4.68

Variant | polymerase ribozyme fitness (log ratio)
C80U C101U A118G A121U U131A | 0.732
G93C C123G | -0.285
C3U A26U C49U A118U | -3.26
C34G C79A A91C C97U C99U A100C C101U G113C U130A | -6.71
C62U C85A | -2.09
C64U C82U U106G | -1.27
C3A C40A A91C G117C A119U | -5.83
C20A G110A | -4.21
A27U C28G G63U G110C | -5.36
C49U G113A | -1.68
U9G C12G U33A G42A C72G G93A G110U U116A | -7.22
A75U C99U | -3.69
C73U G117A G128C | -5.18
A41G A46U C123U | -2.51
U9A U55G C99U | -2.44
C28U C123U | -0.507
G120A U130G | 0.245
A37G G39C | -2.69
G77U C124G | 1.96
A46G U59A | -0.58
G51U A68U U106G G110U C124A | -5.92
A46C G48A C101U G110C | -6.49
U14C G47C | -2.99
A41U G110U U125A | -4.14

Variant | polymerase ribozyme fitness (log ratio)
A6U C79G | -1.17
C4A A27G A75G G120U | -4.55
G42A C72G C89G | -3.84
A16C C49A C94A C124A | -0.594
C101G U112C | -0.331
C86A C123U C124G | 0.744
C56U C89A | -1.04
U7A C56A A121G | 1.68
G113U G122U | -2.45
C4U A16G C49U G69U G113U | -2.65
A46U C64U A90U U96A U106A U131A | -3.76
G47A A50U C56A G69U G77C | -1.54
G57C A83G U116G | -2.83
C49U A50G | -1.68
C86G G120A | -0.356
C79A U106C | -0.96
G36A C62A C89U A95C C114U | -6.66
G39C G48A C49U C89A | -4.19
C56A G107A A121C | -4.32
A2C G47U U78C U112C | -1.88
G69U U78G A91C U92G | -0.788
A29U C94A A111U | -0.272
G52A C53A A74G A90G | 0.00151
A29G A41U A46C G63C | -5.41

Variant | polymerase ribozyme fitness (log ratio)
G39C A43C G69U C82G U96C | -3.31
A29C A41C G61U | -3.33
C3U C70A | -1.81
C89U G122A | -0.697
U30G C49G G113C | -5.95
A50C G113U | -3.73
U38C G45A G113C U125C | -3.38
U9A C86G | 0.0417
C13A G57C C85G C123U | -1.45
U9A A16U A24C U33G G36A C115U | -7.16
C89U C99G A100C C123G | -7.05
U78G U109A | -6.21
U112G | 0.661
A43C G44U G113A | -3.01
C3A G110C C123G | -4.82
G17C C34U G42U C70A C123A | -6.07
C11U C15A C40U C73A C123G | -0.889
G36A C40A C53G U59C C124G | -2.06
C82G C99U | -3.61
G35A C88U C102A | -5.27
C4A G36A | -2.02
G45U C53A G61C | -5.95
C40U G63C C98U A100U C101U | -3.3
G44U C56A G57A C104U U106G | -2.38

Variant | polymerase ribozyme fitness (log ratio)
U7A G39A G42C G45C A83U G110A | -5.83
G19U A111C | -2.32
G47U C70U C82G G120U C124G G127A | -0.105
G44U C64G | -7.29
U32A A43G C88U G93A C114G | -5.05
G10U C56U | 0.114
C8U C104G U106A C124G | -3.63
C70G C72G G110U | -6.42
G61U C114A | -1.12
C13U A27U C79A | -3.24
C86G C102G C115A U133A | -5.49
C13A C76G | -2.51
G19A G60A | -1.41
G60C A118U | -0.0622
G93U G120A U125A | 0.0882
C72A C85G G93A U106C | -1.13
G71C U112A | 0.348
C15A G48U A50G C97U | -4.67
C99A A121G | -4.75
C12A C98U G110C U131A | -6.2
A6G C64U | 0.116
C20U G77U A91G | -5.11
G77A U96G | -1.12
A37U C72G U78C A119U | -1.26

Variant | polymerase ribozyme fitness (log ratio)
C64U C104A G120A | -0.809
C11U A74G C89G | -3.01
G47U U78G | -1.6
G17U C64U U78C | -3.17
G52A A90C A100U A111G | -2.82
G57U C79U A108G | -2.71
U54G C80G C123U | -4.41
G45A C62A | -1.81
A2G C12G G17A U54C C88U A91U C101U A105U C114G U131A | -5.89
A2C G44A U59A U96A U112A U129A | -2.9
C15U A95U | -2.49
C20A G39C | -3.59
G10A A50G | 0.0587
U54G C79A | -2.11
A90C A100U A111G | -1.79
G36C C40G C72U C73A | -5.31
C13U G44A A50C G63A C85A | -3.07
C53G G122A | -1.37
G71U C73A A83U | -2.73
A18C C79G A90U G113A | -4.1
C12G G45A U78C A84C U106G | -2.62
C49A U106A | -0.478
U7C C13A C28G G69U A100U | -2.4
